IntAct's records for PubMed 18376416

B1: Protein XRP2 (Homo sapiens), O75695 (parent)
chain: MGCFFSKRRKADKESRPENEEERPKQYSWDQREKVDPKDYMFSGLKDETVGRLPGTVAGQQFLIQDCENCNIYIFDHSATVTIDDCTNCIIFLGPVKGSVFFRNCRDCKCTLACQQFRVRDCRKLEVFLCCATQPIIESSSNIKFGCFQWYYPELAFQFKDAGLSIFNNTWSNIHDFTPVSGELNWSLLPEDAVVQDYVPIPTTEELKAVRVSTEANRSIVPISRGQRQKSSDESCLVVLFAGDYTIANARKLIDEMVGKGFFLVQTKEVSMKAEDAQRVFREKAPDFLPLLNKGPVIALEFNGDGAVEVCQLIVNEIFNGTKMFVSESKETASGDVDSFYNFADIQMGI

Variants of: B1
Conditions: with arl3_mouse Arl3, Q9WUL7
Sequence of arl3_mouse Arl3, Q9WUL7 (Q9WUL7 whole entry): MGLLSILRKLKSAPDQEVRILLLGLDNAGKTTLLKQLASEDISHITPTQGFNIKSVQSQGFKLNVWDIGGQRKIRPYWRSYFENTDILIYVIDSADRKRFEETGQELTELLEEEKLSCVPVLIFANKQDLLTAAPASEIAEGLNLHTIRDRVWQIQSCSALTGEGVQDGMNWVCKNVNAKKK

Row | Variant | effect of a mutation on the interaction
1 | R120H;D121S | decreasing interaction
2 | R118H | decreasing interaction
3 | Q115A | decreasing interaction
4 | S28A;W29A | decreasing interaction

Variants of: B1
Conditions: with arl3_mouse Arl3, Q9WUL7
Remark: another data set of the same source

Row | Variant | effect of a mutation on the interaction
5 | E138G | decreasing interaction
6 | R118A | decreasing interaction
7 | Q116A | decreasing interaction
8 | F177A | decreasing interaction
